Measurements published in patent publication US20090298765A1 (Takeda / Millennium, published 2009).
Starred links: 1 amine or outer side, 2 acyl side, 3 side chain; linkers in the order of their positions; H or OH if unused. Non-standard residues stand in square brackets, D forms with d. Primed or numbered codes have the meaning given here. No end group written: not given here. *: point of attachment. Trp(For)″ = Trp(CHO), formyl-Trp, O=Cn1cc(C[C@H](N[*:1])C(=O)[*:2])c2ccccc21; Phe(3-CF3) = N[C@@H](Cc1cccc(C(F)(F)F)c1)C(=O)O; Phe(4-CN) = N#Cc1ccc(C[C@H](N)C(=O)O)cc1; Phe(4-Cl) = N[C@@H](Cc1ccc(Cl)cc1)C(=O)O; Phe(3-F) = N[C@@H](Cc1cccc(F)c1)C(=O)O; Phe(4-F) = N[C@@H](Cc1ccc(F)cc1)C(=O)O; Phe(2-F) = N[C@@H](Cc1ccccc1F)C(=O)O; Arg(Me) = CNC(=N)NCCC[C@H](N)C(=O)O; Fmoc = O=C(OCC1c2ccccc2-c2ccccc21)*; 2Pal = N[C@@H](Cc1ccccn1)C(=O)O; 3Pal = N[C@@H](Cc1cccnc1)C(=O)O; Cha = N[C@@H](CC1CCCCC1)C(=O)O; Arg(Et)″ = ethylated arginine; Dab = NCC[C@H](N)C(=O)O; azaGly = NNC(=O)O

B1: [D-Tyr1,Pro3,AzaGly7,Arg(Me)9]MS10 (peptide)
peptide: [dY]NPNSF[azaGly]L[Arg(Me)]F-NH2
modifications: N-terminus assumed
SMILES: CNC(=N)NCCC[C@H](NC(=O)[C@H](CC(C)C)NC(=O)NNC(=O)[C@H](Cc1ccccc1)NC(=O)[C@H](CO)NC(=O)[C@H](CC(N)=O)NC(=O)[C@@H]1CCCN1C(=O)[C@H](CC(N)=O)NC(=O)[C@H](N)Cc1ccc(O)cc1)C(=O)N[C@@H](Cc1ccccc1)C(N)=O
notes: also called Compound No. 253
B2: des(1-2)-Acetyl-[Arg3,AzaGly7,Arg(Me)9]MS10 (peptide)
peptide: Ac-RNSF[azaGly]L[Arg(Me)]F-NH2
SMILES: CNC(=N)NCCC[C@H](NC(=O)[C@H](CC(C)C)NC(=O)NNC(=O)[C@H](Cc1ccccc1)NC(=O)[C@H](CO)NC(=O)[C@H](CC(N)=O)NC(=O)[C@H](CCCNC(=N)N)NC(C)=O)C(=O)N[C@@H](Cc1ccccc1)C(N)=O
notes: also called Compound No. 275
B3: des(1-2)-Acetyl-[Thr3,AzaGly7,Arg(Me)9]MS10 (peptide)
peptide: Ac-TNSF[azaGly]L[Arg(Me)]F-NH2
SMILES: CNC(=N)NCCC[C@H](NC(=O)[C@H](CC(C)C)NC(=O)NNC(=O)[C@H](Cc1ccccc1)NC(=O)[C@H](CO)NC(=O)[C@H](CC(N)=O)NC(=O)[C@@H](NC(C)=O)[C@@H](C)O)C(=O)N[C@@H](Cc1ccccc1)C(N)=O
notes: also called Compound No. 276

Molecular target: T1, human OT7T175 (metastin receptor) (human, UniProt Q969F8 1-398)
T1 construct: expressed on CHO cells; also called hOT7T175; hOT7T175-expressed CHO cells
T1 sequence (Q969F8 whole entry L364H): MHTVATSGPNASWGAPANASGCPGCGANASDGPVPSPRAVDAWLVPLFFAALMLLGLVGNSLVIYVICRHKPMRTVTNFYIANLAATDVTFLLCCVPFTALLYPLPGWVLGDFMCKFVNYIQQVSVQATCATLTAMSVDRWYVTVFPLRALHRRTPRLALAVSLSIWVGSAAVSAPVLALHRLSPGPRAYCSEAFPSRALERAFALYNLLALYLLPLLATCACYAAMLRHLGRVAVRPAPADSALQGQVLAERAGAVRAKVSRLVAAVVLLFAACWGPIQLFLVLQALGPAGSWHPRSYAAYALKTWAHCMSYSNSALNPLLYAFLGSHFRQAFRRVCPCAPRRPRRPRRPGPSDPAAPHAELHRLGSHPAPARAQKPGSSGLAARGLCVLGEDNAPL
Assay: competition with Cy-5 metastin (40-54) on hOT7T175-CHO cells, FMAT
Experimental: hOT7T175-Expressed CHO cells were cultured in MEM-α medium (nucleic acid-free) containing 10% dialyzed serum. The medium was removed and the adhered cells were washed with PBS. Then, PBS containing 5 mM EDTA was added and the cells were scraped from a flask with a cell scraper.
To each well of a 96-Well Black Clear Bottom Microplate (Applied Biosystems, Inc.), 10 μL of assay buffer containing 1% dimethylsulfoxide was added to examine total binding, 10 μL of 10 μM non-labeled peptide (having the same amino acid sequence as that of labeled one) solution diluted with assay buffer to examine non-specific binding, and 10 μL of a test compound diluted with assay buffer to examine a binding inhibition activity of the test compound, and furthermore, 90 μL each of the cell suspension was dispensed to each well. […] Specific binding is calculated as non-specific binding subtracted from total binding. The binding inhibition activity of a test compound is shown by a ratio of the value obtained by subtracting a measured value in presence of a test compound from the total binding to the specific binding.

Binder	IC50 [nM]
{D‑glucuronyl}-NSF[azaGly]L[Arg(Me)]F-NH2 (also called Compound No. 328) [des(1-3)-D-Glucuronyl-[AzaGly7,Arg(Me)9]MS10]	470
ANWNSFGLRF-NH2 (also called Compound No. 72) [[Ala1]MS10]	540
YNWNSFGVRF-NH2 (also called Compound No. 107) [[Val8]MS10]	120
YNLNSFGLRF-NH2 (also called Compound No. 68) [[Leu3]MS10]	7.7
YNKNSFGLRF-NH2 (also called Compound No. 71) [[Lys3]MS10]	66
YNWNYFGLRF-NH2 (also called Compound No. 23) [[Tyr5]MS10]	400
YNWNSFGLR[Trp(For)″]-NH2 (also called Compound No. 186) [[Trp(For)10]MS10]	460
[dY]N[dA]NSF[azaGly]L[Arg(Me)]F-NH2 (also called Compound No. 252) [[D-Tyr1,D-Ala3,AzaGly7,Arg(Me)9]MS10]	580
YDWNSFGLRF-NH2 (also called Compound No. 57) [[Asp2]MS10]	100
[dY]NTNSF[azaGly]L[Arg(Me)]F-NH2 (also called Compound No. 221) [[D-Tyr1,Thr3,AzaGly7,Arg(Me)9]MS10]	95
YNDNSFGLRF-NH2 (also called Compound No. 70) [[Asp3]MS10]	200
[dY]NSNSF[azaGly]L[Arg(Me)]F-NH2 (also called Compound No. 191) [[D-Tyr1,Ser3,AzaGly7,Arg(Me)9]MS10]	300
LNWNSFGLRF-NH2 (also called Compound No. 73) [[Leu1]MS10]	220
YYWNSFGLRF-NH2 (also called Compound No. 58) [[Tyr2]MS10]	16
YNANSFGLRF-NH2 (also called Compound No. 67) [[Ala3]MS10]	27
YNSNSFGLRF-NH2 (also called Compound No. 69) [[Ser3]MS10]	83
YNWNSYGLRF-NH2 (also called Compound No. 150) [[Tyr6]MS10]	320
YNWNSFGLKF-NH2 (also called Compound No. 44) [[Lys9]MS10]	190
B1	27
YLWNSFGLRF-NH2 (also called Compound No. 59) [[Leu2]MS10]	340
[dY]NWNSFGL[Arg(Et)″]F-NH2 (also called Compound No. 192) [[D-Tyr1,Arg(Et)9]MS10]	530
YNWNSFGLR[Phe(3,4F2)]-NH2 (also called Compound No. 198) [[Phe(3,4F2)10]MS10]	170

Binder	IC50 [nM]
YNWNSFGLR[Phe(4-F)]-NH2 (also called Compound No. 61) [[Phe(4F)10]MS10]	13
YNWNSFGLR[Phe(4-CN)]-NH2 (also called Compound No. 77) [[Phe(4CN)10]MS10]	7.4
YNWNSF[azaGly]L[Arg(Me)]F-NH2 (also: bond 1-2 CONH replaced by CH2NH, also called Compound No. 299) [[1Ψ2,CH2NH,AzaGly7,Arg(Me)9]-MS10]	1.2
YNWNSFGLR[Phe(3-F)]-NH2 (also called Compound No. 197) [[Phe(3F)10]MS10]	170
[dY]N[Cha]NS[Cha]GL[Arg(Me)]F-NH2 (also called Compound No. 181) [[D-Tyr1,Cha3,6,Arg(Me)9]MS10]	19
YNWNSFGLR[Phe(3-CF3)]-NH2 (also called Compound No. 200) [[Phe(3CF3)10]MS10]	340
[dY]N[2Pal]NSF[azaGly]L[Arg(Me)]F-NH2 (also called Compound No. 285) [[D-Tyr1,Pya(2)3,AzaGly7,Arg(Me)9]MS10]	40
Fmoc-WNSFGL[Arg(Me)]F-NH2 (also called Compound No. 145) [des(1-2)-Fmoc-[Arg(Me)9]MS10]	120
B2	410
B3	480
YNWNSFGLR[Phe(4-Cl)]-NH2 (also called Compound No. 130) [[Phe(4Cl)10]MS10]	42
[dY]N[dW]NSFGL[Arg(Me)]F-NH2 (also called Compound No. 142) [[D-Tyr1,D-Trp3,Arg(Me)9]MS10]	26
[dY][dN][Cha]NSF[azaGly]L[Arg(Me)]F-NH2 (also called Compound No. 283) [[D-Tyr1,D-Asn2,Cha3,AzaGly7,Arg(Me)9]MS10]	0.69
YNWNSFGLRX (Pya(3)10; C-terminal amide, also called Compound No. 60) [[Pya(3)10]MS10]	170
[dW]NSFGL[Arg(Me)]F-NH2 (also called Compound No. 223) [des(1-2)-[D-Trp3,Arg(Me)9]MS10]	760
YNWNSFGLR[Phe(2-F)]-NH2 (also called Compound No. 19) [[Phe(2F)10]MS10]	8.6
YNWNSFGL[Dab]F-NH2 (also called Compound No. 313) [[Dab9]MS10]	690
[dY]N[3Pal]NSF[azaGly]L[Arg(Me)]F-NH2 (also called Compound No. 251) [[D-Tyr1,Pya(3)3,AzaGly7,Arg(Me)9]MS10]	87
NWNSFGLRF-NH2 (also called Compound No. 4) [des(1)-MS10]	260
[dY]N[dW]NSF[azaGly]L[Arg(Me)]F-NH2 (also called Compound No. 236) [[D-Tyr1,D-Trp3,AzaGly7,Arg(Me)9]MS10]	42
[dY]NWNSFGL[Arg(Me)]F-NH2 (also: bond 7-8 CONH replaced by CH2NH, also called Compound No. 307) [[7Ψ8,CH2NH,D-Tyr1,Arg(Me)9]MS10]	64
